Biological target: LIF receptor/gp130 heterodimer (rat) (UniProt O70535)
Test: cell-based or functional assay

UniProt O70535, sequence (O70535 44-1093, chain 1 of 2): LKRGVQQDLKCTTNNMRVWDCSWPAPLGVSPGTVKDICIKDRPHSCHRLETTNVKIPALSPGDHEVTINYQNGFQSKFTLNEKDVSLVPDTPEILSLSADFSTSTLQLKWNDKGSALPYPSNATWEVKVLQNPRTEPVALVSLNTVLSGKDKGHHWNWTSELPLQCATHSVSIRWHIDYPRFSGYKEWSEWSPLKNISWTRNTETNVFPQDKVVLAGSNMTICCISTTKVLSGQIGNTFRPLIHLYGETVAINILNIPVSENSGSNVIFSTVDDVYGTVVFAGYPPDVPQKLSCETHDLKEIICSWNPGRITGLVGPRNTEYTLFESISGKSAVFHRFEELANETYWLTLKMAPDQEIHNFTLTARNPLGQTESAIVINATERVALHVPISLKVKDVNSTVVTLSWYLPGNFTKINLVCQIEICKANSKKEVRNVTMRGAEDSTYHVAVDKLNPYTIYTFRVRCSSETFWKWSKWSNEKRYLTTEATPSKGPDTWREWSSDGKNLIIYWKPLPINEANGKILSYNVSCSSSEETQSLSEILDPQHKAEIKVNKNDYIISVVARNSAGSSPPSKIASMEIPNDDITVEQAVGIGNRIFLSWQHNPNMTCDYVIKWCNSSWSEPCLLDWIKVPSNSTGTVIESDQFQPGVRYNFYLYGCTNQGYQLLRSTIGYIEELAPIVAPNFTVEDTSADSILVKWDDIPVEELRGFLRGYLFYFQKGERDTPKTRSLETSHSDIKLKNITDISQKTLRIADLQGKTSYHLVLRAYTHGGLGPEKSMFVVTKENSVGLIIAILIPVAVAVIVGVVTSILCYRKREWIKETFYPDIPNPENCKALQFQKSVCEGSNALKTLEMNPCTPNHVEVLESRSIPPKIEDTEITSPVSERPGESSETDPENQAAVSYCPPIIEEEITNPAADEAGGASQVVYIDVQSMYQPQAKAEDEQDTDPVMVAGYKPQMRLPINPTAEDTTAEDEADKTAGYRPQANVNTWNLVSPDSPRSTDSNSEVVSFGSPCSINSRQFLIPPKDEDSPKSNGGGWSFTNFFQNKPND
UniProt O70535, sequence (P40190 23-918, chain 2 of 2, further chain): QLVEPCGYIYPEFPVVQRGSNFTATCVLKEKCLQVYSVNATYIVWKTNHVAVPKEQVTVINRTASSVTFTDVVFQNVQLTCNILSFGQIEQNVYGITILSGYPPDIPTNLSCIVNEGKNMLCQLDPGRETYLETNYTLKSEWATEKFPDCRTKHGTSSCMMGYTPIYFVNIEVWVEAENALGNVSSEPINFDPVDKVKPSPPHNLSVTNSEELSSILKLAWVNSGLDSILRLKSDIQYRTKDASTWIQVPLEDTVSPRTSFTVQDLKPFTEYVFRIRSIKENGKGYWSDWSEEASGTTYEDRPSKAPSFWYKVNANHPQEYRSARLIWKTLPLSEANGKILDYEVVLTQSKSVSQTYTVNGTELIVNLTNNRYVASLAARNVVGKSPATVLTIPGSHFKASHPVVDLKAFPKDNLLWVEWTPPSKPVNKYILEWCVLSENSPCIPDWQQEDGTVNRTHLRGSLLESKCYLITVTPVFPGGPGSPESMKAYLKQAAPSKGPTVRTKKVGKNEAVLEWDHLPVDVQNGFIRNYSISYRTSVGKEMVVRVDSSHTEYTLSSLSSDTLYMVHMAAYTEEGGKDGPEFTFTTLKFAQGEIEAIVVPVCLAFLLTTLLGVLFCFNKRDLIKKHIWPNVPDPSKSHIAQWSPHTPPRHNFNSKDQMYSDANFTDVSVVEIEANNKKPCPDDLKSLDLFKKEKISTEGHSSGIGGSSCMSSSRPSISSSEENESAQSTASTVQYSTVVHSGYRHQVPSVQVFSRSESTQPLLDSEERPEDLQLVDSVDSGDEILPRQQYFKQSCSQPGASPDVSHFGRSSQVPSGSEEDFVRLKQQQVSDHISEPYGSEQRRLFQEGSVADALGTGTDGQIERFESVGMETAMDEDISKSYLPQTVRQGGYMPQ

conversion of metanephric mesenchyme into epithelia (lowest active dose): 0.2 nM
Substance: recombinant leukemia inhibitory factor (ligand)
